T1: DVL3, Q92997
T1 sequence (Q92997 244-331, limits assumed, looked up): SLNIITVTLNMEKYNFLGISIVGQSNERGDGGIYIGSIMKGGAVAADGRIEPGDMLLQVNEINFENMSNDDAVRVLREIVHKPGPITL

T2: SNTG2, Q9NY99
T2 sequence (Q9NY99 68-166, limits assumed, looked up): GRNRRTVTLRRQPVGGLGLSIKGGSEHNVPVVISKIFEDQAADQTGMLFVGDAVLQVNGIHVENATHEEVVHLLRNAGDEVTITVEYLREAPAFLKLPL

T3: PDZD7_3, Q9H5P4
T3 sequence (Q9H5P4 857-944, limits assumed, looked up): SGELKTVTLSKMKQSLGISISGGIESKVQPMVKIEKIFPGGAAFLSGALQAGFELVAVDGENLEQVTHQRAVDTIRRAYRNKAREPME

T4: APBA3_1, O96018
T4 sequence (O96018 389-490, limits assumed, looked up): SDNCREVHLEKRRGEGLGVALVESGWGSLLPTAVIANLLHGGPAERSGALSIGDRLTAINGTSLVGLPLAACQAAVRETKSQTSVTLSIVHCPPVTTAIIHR

T5: TIAM2, Q8IVF5
T5 sequence (Q8IVF5 885-986, limits assumed, looked up): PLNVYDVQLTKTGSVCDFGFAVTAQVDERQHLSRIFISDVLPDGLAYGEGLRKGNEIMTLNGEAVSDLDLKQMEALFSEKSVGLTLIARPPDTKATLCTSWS

T6: RHPN1, Q8TCX5
T6 sequence (Q8TCX5 508-602, limits assumed, looked up): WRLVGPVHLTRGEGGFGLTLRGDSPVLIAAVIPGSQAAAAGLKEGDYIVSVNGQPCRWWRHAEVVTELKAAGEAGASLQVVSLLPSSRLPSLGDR

T7: SIPA1L2, Q9P2F8
T7 sequence (Q9P2F8 945-1036, limits assumed, looked up): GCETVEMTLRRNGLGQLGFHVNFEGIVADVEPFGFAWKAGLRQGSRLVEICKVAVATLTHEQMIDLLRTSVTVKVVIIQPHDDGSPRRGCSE

T8: HTRA4, P83105
T8 sequence (P83105 378-476, limits assumed, looked up): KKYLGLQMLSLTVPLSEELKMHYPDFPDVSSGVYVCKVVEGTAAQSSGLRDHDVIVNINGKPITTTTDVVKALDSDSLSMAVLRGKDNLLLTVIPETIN

T9: FRMPD1, Q5SYB0
T9 sequence (Q5SYB0 52-145, limits assumed, looked up): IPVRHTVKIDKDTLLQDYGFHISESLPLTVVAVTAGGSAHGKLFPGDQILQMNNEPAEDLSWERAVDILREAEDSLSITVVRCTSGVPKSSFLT

T10: RAPGEF6, Q8TEU7
T10 sequence (Q8TEU7 525-625, limits assumed, looked up): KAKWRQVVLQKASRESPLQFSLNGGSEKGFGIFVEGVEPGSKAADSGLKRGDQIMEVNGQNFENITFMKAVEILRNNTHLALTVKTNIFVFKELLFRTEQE

T11: PTPN13_1, Q12923
T11 sequence (Q12923 1088-1188, limits assumed, looked up): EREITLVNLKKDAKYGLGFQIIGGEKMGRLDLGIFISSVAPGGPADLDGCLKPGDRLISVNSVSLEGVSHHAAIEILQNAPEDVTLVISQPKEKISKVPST


Assays:
Assay in all cases: holdup assay
Parameters in all cases: key: below the threshold = too weak to quantify, mostly under pKd 3.1 to 4
Conditions in all cases: plain residues with an end cap or a label only (N-terminal biotin on a linker: ado-ado)
PDZRN4_1, Q6ZMN7 = biological target: PDZRN4_1, Q6ZMN7
DVL3, Q92997 = biological target: T1, DVL3, Q92997
SNTG2, Q9NY99 = biological target: T2, SNTG2, Q9NY99
MAGI2_3, Q86UL8 = biological target: MAGI2_3, Q86UL8
PDZD7_3, Q9H5P4 = biological target: T3, PDZD7_3, Q9H5P4
APBA3_1, O96018 = biological target: T4, APBA3_1, O96018
TIAM2, Q8IVF5 = biological target: T5, TIAM2, Q8IVF5
FRMPD2_3, Q68DX3 = biological target: FRMPD2_3, Q68DX3
RHPN1, Q8TCX5 = biological target: T6, RHPN1, Q8TCX5
DLG2_3, Q15700 = biological target: DLG2_3, Q15700
SIPA1L2, Q9P2F8 = biological target: T7, SIPA1L2, Q9P2F8
HTRA4, P83105 = biological target: T8, HTRA4, P83105
FRMPD4, Q14CM0 = biological target: FRMPD4, Q14CM0
FRMPD1, Q5SYB0 = biological target: T9, FRMPD1, Q5SYB0
GRASP, Q7Z6J2 = biological target: GRASP, Q7Z6J2
FRMPD2_2, Q68DX3 = biological target: FRMPD2_2, Q68DX3
NHERF4_4, Q86UT5 = biological target: NHERF4_4, Q86UT5
ARHGEF12, Q9NZN5-2 = biological target: ARHGEF12, Q9NZN5-2
FRMPD2_1, Q68DX3 = biological target: FRMPD2_1, Q68DX3
RAPGEF6, Q8TEU7 = biological target: T10, RAPGEF6, Q8TEU7
LNX1_1, Q8TBB1 = biological target: LNX1_1, Q8TBB1
Inadl_6, Q8NI35 = biological target: Inadl_6, Q8NI35
GRIP2_4, Q9C0E4 = biological target: GRIP2_4, Q9C0E4
MAGI2_6, Q86UL8 = biological target: MAGI2_6, Q86UL8
PTPN13_1, Q12923 = biological target: T11, PTPN13_1, Q12923
Inadl_8, Q8NI35 = biological target: Inadl_8, Q8NI35
LNX1_2, Q8TBB1 = biological target: LNX1_2, Q8TBB1
Sequence of LNX1_2, Q8TBB1 (Q8TBB1 371-470): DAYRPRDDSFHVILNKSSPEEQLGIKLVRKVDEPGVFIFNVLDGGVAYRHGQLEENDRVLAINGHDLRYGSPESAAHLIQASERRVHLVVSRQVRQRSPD

Sequence of Inadl_6, Q8NI35 (Q8NI35 1058-1167): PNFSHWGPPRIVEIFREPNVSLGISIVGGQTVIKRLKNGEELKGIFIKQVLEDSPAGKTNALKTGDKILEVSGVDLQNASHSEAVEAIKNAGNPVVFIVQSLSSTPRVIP
Sequence of GRIP2_4, Q9C0E4 (Q9C0E4 446-548): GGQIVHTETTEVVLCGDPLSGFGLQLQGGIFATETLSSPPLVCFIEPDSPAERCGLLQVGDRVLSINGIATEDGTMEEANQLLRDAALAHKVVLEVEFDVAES
Sequence of FRMPD2_3, Q68DX3 (Q68DX3 1073-1166): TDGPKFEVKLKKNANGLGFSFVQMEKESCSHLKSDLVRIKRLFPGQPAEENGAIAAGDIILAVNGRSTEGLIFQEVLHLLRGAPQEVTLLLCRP
Sequence of FRMPD2_2, Q68DX3 (Q68DX3 944-1038): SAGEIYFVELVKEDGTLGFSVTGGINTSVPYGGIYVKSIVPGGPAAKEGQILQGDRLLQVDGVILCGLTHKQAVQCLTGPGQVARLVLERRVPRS
Sequence of MAGI2_3, Q86UL8 (Q86UL8 600-682): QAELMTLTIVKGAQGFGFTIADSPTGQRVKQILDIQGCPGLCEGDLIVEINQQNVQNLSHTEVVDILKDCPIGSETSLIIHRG
Sequence of PDZRN4_1, Q6ZMN7 (Q6ZMN7 213-318): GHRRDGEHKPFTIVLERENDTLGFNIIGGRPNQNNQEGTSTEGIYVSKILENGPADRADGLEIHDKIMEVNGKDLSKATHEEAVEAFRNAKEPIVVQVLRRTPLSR
Sequence of FRMPD2_1, Q68DX3 (Q68DX3 770-861): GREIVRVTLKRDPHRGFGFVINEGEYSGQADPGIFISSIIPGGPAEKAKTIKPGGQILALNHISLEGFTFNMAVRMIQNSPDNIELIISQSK
Sequence of NHERF4_4, Q86UT5 (Q86UT5 464-550): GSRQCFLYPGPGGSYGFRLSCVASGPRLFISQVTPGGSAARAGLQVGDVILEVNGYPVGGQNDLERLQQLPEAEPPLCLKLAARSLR
Sequence of FRMPD4, Q14CM0 (Q14CM0 67-160): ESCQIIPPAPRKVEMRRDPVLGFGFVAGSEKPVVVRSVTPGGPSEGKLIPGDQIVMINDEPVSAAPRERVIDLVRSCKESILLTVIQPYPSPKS
Sequence of MAGI2_6, Q86UL8 (Q86UL8 1141-1229): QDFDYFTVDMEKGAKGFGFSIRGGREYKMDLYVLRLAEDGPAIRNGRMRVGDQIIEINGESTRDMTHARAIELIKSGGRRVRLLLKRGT
Sequence of Inadl_8, Q8NI35 (Q8NI35 1425-1530): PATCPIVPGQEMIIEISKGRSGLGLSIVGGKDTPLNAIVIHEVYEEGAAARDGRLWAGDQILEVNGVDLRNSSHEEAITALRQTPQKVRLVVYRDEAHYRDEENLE
Sequence of GRASP, Q7Z6J2 (Q7Z6J2 96-193): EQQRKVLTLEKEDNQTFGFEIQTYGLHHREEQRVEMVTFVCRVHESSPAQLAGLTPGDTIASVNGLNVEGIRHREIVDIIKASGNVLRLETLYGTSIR
Sequence of ARHGEF12, Q9NZN5-2 (Q9NZN5 other isoform, or with tags, fused parts or gaps): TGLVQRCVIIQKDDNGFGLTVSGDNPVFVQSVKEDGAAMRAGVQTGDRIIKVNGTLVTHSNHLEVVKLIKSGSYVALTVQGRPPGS
Sequence of LNX1_1, Q8TBB1 (Q8TBB1 261-371): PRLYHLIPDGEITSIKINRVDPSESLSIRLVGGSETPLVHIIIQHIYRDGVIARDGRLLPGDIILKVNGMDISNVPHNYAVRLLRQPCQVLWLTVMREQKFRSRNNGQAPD

pKd (PDZRN4_1, Q6ZMN7) | pKd (DVL3, Q92997) | pKd (SNTG2, Q9NY99) | pKd (MAGI2_3, Q86UL8) | pKd (PDZD7_3, Q9H5P4) | pKd (APBA3_1, O96018) | pKd (TIAM2, Q8IVF5) | pKd (FRMPD2_3, Q68DX3) | pKd (RHPN1, Q8TCX5) | pKd (DLG2_3, Q15700) | pKd (SIPA1L2, Q9P2F8) | pKd (HTRA4, P83105) | pKd (FRMPD4, Q14CM0) | pKd (FRMPD1, Q5SYB0) | pKd (GRASP, Q7Z6J2) | pKd (FRMPD2_2, Q68DX3) | pKd (NHERF4_4, Q86UT5) | pKd (ARHGEF12, Q9NZN5-2) | pKd (FRMPD2_1, Q68DX3) | pKd (RAPGEF6, Q8TEU7) | Binder | other results
below the threshold | below the threshold | below the threshold | below the threshold | 3.88 | below the threshold | below the threshold | 3.97 | below the threshold | below the threshold | below the threshold | below the threshold | 3.58 | below the threshold | below the threshold | below the threshold | below the threshold | below the threshold | 4 | below the threshold | TRKRSGEAAV [PFKM, P08237] | pKd (LNX1_1, Q8TBB1): below the threshold; pKd (Inadl_6, Q8NI35): below the threshold; pKd (GRIP2_4, Q9C0E4): below the threshold; pKd (MAGI2_6, Q86UL8): below the threshold; pKd (PTPN13_1, Q12923): below the threshold; pKd (Inadl_8, Q8NI35): 3.57; pKd (LNX1_2, Q8TBB1): below the threshold
below the threshold | below the threshold | below the threshold | below the threshold | below the threshold | below the threshold | below the threshold | below the threshold | below the threshold | below the threshold | below the threshold | 3.49 | 3.77 | below the threshold | below the threshold | below the threshold | below the threshold | below the threshold | below the threshold | below the threshold | MHIQEKGFHV [EPHA6, Q9UF33] | pKd (LNX1_1, Q8TBB1): below the threshold; pKd (Inadl_6, Q8NI35): below the threshold; pKd (GRIP2_4, Q9C0E4): below the threshold; pKd (MAGI2_6, Q86UL8): below the threshold; pKd (PTPN13_1, Q12923): below the threshold; pKd (Inadl_8, Q8NI35): below the threshold; pKd (LNX1_2, Q8TBB1): 3.77

From paper PMC9482650, “Quantitative fragmentomics allow affinity mapping of interactomes” (Nature Communications, 2022)
